Source: patent US20250011391A1, “ULTRA LIGHT-SENSITIVE NEUROPSIN-BASED OPTOGENETIC TOOL FOR ACTIVATING G q-COUPLED SIGNALING AND/OR ACTIVATING CELLS” (GENANS BIOTECHNOLOGY CO., LTD, priority 2021, published 2025)

Test system: neurons in slice preparations of the motor cortex, hippocampus, and dorsal striatum
Experiment: Whole-cell patch-clamp recording of cOpn5-expressing neurons in slices
Type: cell-based, mouse
Source text: The effect of light-induced cOpn5 activation on the electrophysiological properties of neurons in slice preparations of the motor cortex, hippocampus, and dorsal striatum is next investigated (FIG. 8d). Two types of activation patterns are observed. In a majority of recorded neurons, blue light pulses induce a small depolarizing current (˜20 pA) in the voltage-clamp mode, and induce delayed-yet-vigorous firing of action potentials in the current-clamp mode (FIG. 8e, left, n=12 neurons). […] In the other subset of neurons, brief light pulses rapidly evoked strong inward currents (100-1000 pA) and drove bursting firing of action potentials (FIG. 8e, right, n=6 neurons). […] Of note, unlike generated by ChR2 optogenetics^53, the action potential evoked by cOpn5 photostimulation is not time-locked to light pulses.
d, Schematic diagram depicts optogenetic stimulation and whole-cell patch-clamp recording of cOpn5-expressing neurons in the cortex, striatum and hippocampus.

B1: cOpn5: Chicken (Gallus gallus) Opn5 (neuropsin) ortholog, SEQ ID NO:1, GenBank NM_001130743.1 (protein, listed as Gallus lafayetii)
chain: MSGMASDCNSSSQEEYLPHYVQQEDPFASKLSREADIIAGFYLTVIGILSTLGNGYVIFMSSKRKKKLRPAEIMTVNLAVCDLGISVVGKPFSIISFFSHRWIFGWMGCRWYGWAGFFFGCGSLITMTAVSLDRYLKICHLAYGTWLKRHHAFICLALIWAYATFWATVPFAGVGSYAPEPFGTSCTLDWWLAQASVAGQAFVLSILFFCLLFPTAVIVFSYVKIILKVKSSTKEVAHYDTRIQNSHILEMKLTKVAMLICAGFLIAWIPYAVVSVWSAFGQPDSVPIQFSVVPTLLAKSAAMYNPIIYQVIDCKFACCRSGGPKTLQKKSSLKESRMYTLSSHRDSAALSGTQLEV
B1 was tested, and the “firing rate of neurons after pulsed 473 nm light stimulation” value (1 Hz, 5 s, n=18) was “increased”, the “firing rate across repetitive trials of light stimulation” value (10 ms/pulse at 10 Hz) was “non-attenuated” and the “spike latency after the initial light pulse, higher frequencies of light pulses” value (majority-type neurons) was about 3 s. For the same molecule, the “spike latency after the initial light pulse, lower frequency of light pulses” value (majority-type neurons) was about 5 s, the “inward currents evoked by brief light pulses” value (other subset of neurons (n=6)) was 100-1000 pA and the “depolarizing current induced by blue light pulses” value (voltage-clamp, majority of recorded neurons (n=12)) was about 20 pA.
